Assay results reported in publication PMC10723142, “Structures of the P. aeruginosa FleQ-FleN master regulators reveal large-scale conformational switching in motility and biofilm control” (Proceedings of the National Academy of Sciences of the …, 2023).

B1: full-length FleN^D48A (His6 tag cleaved) (natural protein)
chain: MKQMGSMHPVQVIAVTGGKGGVGKTNVSVNLALALADLGRRVMLLDAALGLANVDVLLGLTPKRTLADVIEGRCELRDVLLLGPGGVRIVPAASGTQSMVHLSPMQHAGLIQAFSDISDNLDVLVVDTAAGIGDSVVSFVRAAQEVLLVVCDEPTSITDAYALIKLLNRDHGMTRFRVLANMAHSPQEGRNLFAKLTKVTDRFLDVALQYVGVIPYDESVRKAVQKQRAVYEAFPRSKASLAFKAVAQKVDSWPLPANPRGHLEFFVERLVQHPATGSAV
notes: FleN, P. aeruginosa PAO1, full-length with D48A; pProEx-Htb-cloned, tag cleaved by HRV3c protease; source: E. coli BL21 Star (DE3), coexpressed with FleQ^REC-AAA+, purified as complex (IMAC, HRV3c cleavage, SEC); not shown: His6, N-terminal, cleaved
B2: His6-tagged full-length FleN^D48A (tag not cleaved) (natural protein)
chain: MKQMGSMHPVQVIAVTGGKGGVGKTNVSVNLALALADLGRRVMLLDAALGLANVDVLLGLTPKRTLADVIEGRCELRDVLLLGPGGVRIVPAASGTQSMVHLSPMQHAGLIQAFSDISDNLDVLVVDTAAGIGDSVVSFVRAAQEVLLVVCDEPTSITDAYALIKLLNRDHGMTRFRVLANMAHSPQEGRNLFAKLTKVTDRFLDVALQYVGVIPYDESVRKAVQKQRAVYEAFPRSKASLAFKAVAQKVDSWPLPANPRGHLEFFVERLVQHPATGSAV
notes: pProEx-Htb-cloned; source: E. coli BL21 Star (DE3), coexpressed with FleQ^FL, purified as complex (IMAC, SEC), without tag cleavage; not shown: His6, N-terminal, kept
B3: FleQ receiver and ATPase domain tandem (FleQ^REC-AAA+) (domain or fragment)
chain: not shown
notes: FleQ, P. aeruginosa PAO1, residues 1-394 (REC and AAA+ domains); untagged, from pRSFDuet1*; also called FleQ^1-394; HTH-truncated FleQ; source: E. coli BL21 Star (DE3), coexpressed with His6-FleN variants; in lysate (IMAC co-purification) and purified as complex (IMAC, SEC) for cryo-EM
B4: full-length untagged FleQ (FleQ^FL) (natural protein)
chain: not shown
notes: FleQ, P. aeruginosa PAO1 (amplified from genomic DNA), residues 1-490 covering the full-length protein; untagged, from pRSFDuet1*; also called FleQ^1-490; wild-type FleQ; source: E. coli BL21 Star (DE3), coexpressed with His6-FleN variants; in lysate (IMAC co-purification) and purified as complex (IMAC, SEC) for cryo-EM

Experiments:
[1] = target: the molecule itself; assay: cryo-EM structure; c-di-GMP-bound complex, coexpressed and co-purified (IMAC, tag cleavage, SEC with 2 uM c-di-GMP); 200 uM AppCp and 4 uM c-di-GMP before grid preparation
[2] = target: B3; assay: as above; details: both partners purified
[3] = target: the molecule itself; assay: cryo-EM structure; c-di-GMP-free complex, coexpressed and co-purified (IMAC, SEC), with AppCp (100 uM); 20 mM HEPES pH 8.0, 250 mM NaCl, 2 mM MgCl2, 2% glycerol; C2 symmetry
[4] = target: B4; assay: as above; details: both partners purified
[5] = target: B1; assay: cryo-EM structure; c-di-GMP-bound complex, coexpressed and co-purified (IMAC, tag cleavage, SEC with 2 uM c-di-GMP); 200 uM AppCp and 4 uM c-di-GMP before grid preparation; details: both partners purified
[6] = target: B2; assay: cryo-EM structure; c-di-GMP-free complex, coexpressed and co-purified (IMAC, SEC), with AppCp (100 uM); 20 mM HEPES pH 8.0, 250 mM NaCl, 2 mM MgCl2, 2% glycerol; C2 symmetry; details: both partners purified

| Binder | binding result [1] | binding result [3] | further results |
| --- | --- | --- | --- |
| B1 | binds | – | binding result [2]: binds |
| B2 | – | binds | binding result [4]: binds |
| B3 | binds | – | stoichiometry N [5]: 1.5 FleQ per FleN (3:2) |
| B4 | – | binds | stoichiometry N [6]: 2 FleQ per FleN (4:2) |
